The record followed here is paper PMC11718114.

Numbering of substitutions follows the chain as printed. Names and notes keep the numbering of the source.

First the molecules themselves.
B1: RRAS2 (wild type), P62070 F75A (protein)
chain: MAAAGWRDGSGQEKYRLVVVGGGGVGKSALTIQFIQSYFVTDYDPTIEDSYTKQCVIDDRAARLDILDTAGQEEAGAMREQYMRTGEGFLLVFSVTDRGSFEEIYKFQRQILRVKDRDEFPMILIGNKADLDHQRQVTQEEGQQLARQLKVTYMEASAKIRMNVDQAFHELVRVIRKFQ
B2: RRAS2 (wild type), P62070 M78A (protein)
chain: B1 chain with A75F, M78A
B3: RRAS2 (wild type), P62070 E74A (protein)
chain: B1 chain with E74A, A75F

For the test, the target named is PI3Kα-RBD (PIK3CA-RBD(157-289)), P42336. Description: ITC. The following applies: chain shown with the change;; parent: est. 8.0 µM; read off a plot.
A word on the Kd: it is a measure of binding affinity in units of concentration. Take B1: the Kd came out at 21 µM. For B2, the Kd was determined as 130 µM. As for B3, the figure is 12 µM.
